Results reported in patent US20200247886A1 (ZLIP, published 2020).
Where a chain is given by its changes, count along the chain named.

Assays:
[1] = target: T1, human CD47 expressed on cells (CD47 expressing CHO cells, Jurkat, HL60, DLD1, Raji) (human, UniProt Q08722 19-292); test: flow cytometry blocking assay on Raji cells, SIRPα is the blocked ligand, MFI
T1 construct: also called CHO-CD47; IAP

[2] = target: T1, human CD47 expressed on cells (CD47 …); test: as above; remark: listed apart in the source
[3] = target: T1, human CD47 expressed on cells (CD47 …); test: IC50 as grade, SIRPα blocking on Raji cells; legend +++: <1 nM
[4] = target: T1, human CD47 expressed on cells (CD47 …); test: IC50 (nM) Frequency as grade, blocking biotinylated SIRPa-Fc binding to DLD1 cells; legend ++: >1 nM and <20 nM
[5] = target: T1, human CD47 expressed on cells (CD47 …); test: flow cytometry on human red blood cells, donor 1, MFI
His-tagged CD47 [6] = target: T2, His-tagged CD47 (Homo sapiens (Human), UniProt Q08722 19-139, limits assumed); test: flow cytometry blocking assay: His-tagged CD47 with Fab on SIRPα-expressing CHO cells (SIRPα is the blocked ligand), anti-His-APC, frequency
T2 construct: not shown: His tag

[7] = target: T1, human CD47 expressed on cells (CD47 …); test: flow cytometry on DLD1 cells, IgG, frequency
[8] = target: T1, human CD47 expressed on cells (CD47 …); test: flow cytometry on human red blood cells, donor 2, MFI
[9] = target: T1, human CD47 expressed on cells (CD47 …); test: flow cytometry on DLD1 cells, IgG, MFI
[10] = target: T1, human CD47 expressed on cells (CD47 …); test: flow cytometry on CD47 expressing CHO cells, MFI (FL-4)
[11] = target: T1, human CD47 expressed on cells (CD47 …); test: flow cytometry blocking assay: 100 nM biotinylated SIRPa-Fc (blocked ligand) on DLD1 cells expressing CD47, frequency
[12] = target: T1, human CD47 expressed on cells (CD47 …); test: IC50 as grade, SIRPα blocking on Raji cells (second part of the table); legend +++: <1 nM
His-tagged CD47 [13] = target: T2, His-tagged CD47; test: IC50 (nM) Frequency as grade, blocking His-tagged CD47 binding to SIRPα-CHO cells; legend +: >2.7 nM
[14] = target: T1, human CD47 expressed on cells (CD47 …); test: flow cytometry on human platelets, donor 2, MFI
[15] = target: T3, biotin labelled polyhistidine tagged CD47 protein (Novoprotein, Cat#321) (human, UniProt Q08722 19-139, biotin labelled (site not stated)); test: flow cytometry blocking assay: antibody mixed with biotinylated human CD47 protein; blocked ligand SIRPα on cells; binding percentage
T3 construct: Bought protein; also called biotinylated CD47; biotinylated human CD47 protein; not shown: polyhistidine tag

[16] = target: T1, human CD47 expressed on cells (CD47 …); test: IC50 (nM) MFI as grade, blocking biotinylated SIRPa-Fc binding to DLD1 cells; legend +++: <1 nM
His-tagged CD47 [17] = target: T2, His-tagged CD47; test: flow cytometry blocking assay: His-tagged CD47 with Fab on SIRPα-expressing CHO cells (SIRPα is the blocked ligand), anti-His-APC, MFI
[18] = target: T1, human CD47 expressed on cells (CD47 …); test: flow cytometry SIRP-alpha blocking assay on Raji cells, MFI
His-tagged CD47 [19] = target: T2, His-tagged CD47; test: IC50 (nM) MFI as grade, blocking His-tagged CD47 binding to SIRPα-CHO cells; legend +: >2.7 nM
[20] = target: T1, human CD47 expressed on cells (CD47 …); test: flow cytometry blocking assay: 100 nM biotinylated SIRPa-Fc (blocked ligand) on DLD1 cells expressing CD47, MFI
[21] = target: T1, human CD47 expressed on cells (CD47 …); test: flow cytometry on HL60 cells, Fab, frequency
[22] = target: T1, human CD47 expressed on cells (CD47 …); test: EC50 (nM) as grade, flow cytometry, Fab on DLD1 cells; legend +++: <5 nM
His-tagged CD47 [23] = target: T2, His-tagged CD47; test: IC50 (nM) MFI as grade, blocking His-tagged CD47 binding to SIRPα-CHO cells; legend +++: <2 nM
[24] = target: T1, human CD47 expressed on cells (CD47 …); test: EC50 (nM) as grade, flow cytometry, Fab on HL60 cells; legend ++: >1 nM and <7 nM
[25] = target: T1, human CD47 expressed on cells (CD47 …); test: flow cytometry on DLD1 cells, Fab, frequency
[26] = target: T3, biotin labelled polyhistidine tagged …; test: IC50 (nM) as grade, Fab blocking biotinylated CD47 binding to SIRPα-CHO cells; legend +++: <10 nM
[27] = target: T3, biotin labelled polyhistidine tagged …; test: flow cytometry blocking assay: biotinylated CD47 with Fab on SIRPα-expressing CHO cells (SIRPα is the blocked ligand), frequency
His-tagged CD47 [28] = target: T2, His-tagged CD47; test: IC50 (nM) Frequency as grade, blocking His-tagged CD47 binding to SIRPα-CHO cells; legend ++: >2 nM and <2.7 nM
[29] = target: T1, human CD47 expressed on cells (CD47 …); test: EC50 (nM) as grade, flow cytometry, Fab on HL60 cells; legend +: >7 nM
[30] = target: T3, biotin labelled polyhistidine tagged …; test: IC50 (nM) as grade, Fab blocking biotinylated CD47 binding to SIRPα-CHO cells; legend ++: >10 nM and <65 nM

B1: Positive 3 (analogue antibody) (antibody, V domains shown)
VH: QMQLVQSGAEVKKTGSSVKVSCKASGFNIKDYYLHWVRQAPGQALEWMGWIDPDQGDTEYAQKFQDRVTITRDRSMSTAYMELSSLRSEDTAMYYCNAAYGSSSYPMDYWGQGTTVTV
VL: NIQMTQSPSAMSASVGDRVTITCKASQDIHRYLSWFQQKPGKVPKHLIYRANRLVSGVPSRFSGSGSGTEFTLTISSLQPEDFATYYCLQYDEFPYTFGGGTKVEIK
- IC50 (read off the curve) [1]: ~0.6 nM
- IC50 (read off the curve) [2]: ~0.9 nM
- IC50 [3]: < 1 nM
- IC50 [4]: 1 to 20 nM
- EC50 (read off the curve) [5]: ~1 nM
- IC50 (read off the curve) (His-tagged CD47 [6]): ~3 nM
- EC50 (read off the curve) [7]: ~0.07 nM
- EC50 (read off the curve) [8]: ~1 nM
- EC50 (read off the curve) [9]: ~0.6 nM
- EC50 (read off the curve) [10]: ~1 nM
- IC50 (read off the curve) [11]: ~1 nM
- IC50 [12]: < 1 nM
- IC50 (His-tagged CD47 [13]): > 2.7 nM
- EC50 (read off the curve) [14]: ~0.6 nM
- IC50 (read off the curve) [15]: ~1 nM
- IC50 [16]: < 1 nM
- IC50 (read off the curve) (His-tagged CD47 [17]): ~3 nM
- IC50 (read off the curve) [18]: ~0.6 nM
- IC50 (His-tagged CD47 [19]): > 2.7 nM
- IC50 (read off the curve) [20]: ~0.3 nM

B2: ABU9 (Fab) (Fab, V domains shown)
VH: EVQLQQSGPELVKPGASVKLSCKASGFTFTNYYIHWVKQRPGQGPEWIGWIYLGSGNTKYNEKFKGKATLTADTSSSTAYLQLSTLISEDSAVYYCARYDYDLYLDSWGQGTTVTVSS
VL: DIKMNQSPSSLSASLGDTITITCHASQNINVWLSWYQQKPGNIPKLLIYKASNLHTGVPSRFSGSGSGTGFTLTISSLQPEDIATYYCQQGQSYPLTFGAGTKLELK
notes: Phage-derived Fab: murine VL and VH fused to human CL and CH1
- EC50 (read off the curve) [21]: ~6 nM
- IC50 (read off the curve) (His-tagged CD47 [6]): ~3 nM
- EC50 [22]: < 5 nM
- IC50 (His-tagged CD47 [23]): < 2 nM
- EC50 [24]: 1 to 7 nM
- EC50 (read off the curve) [25]: ~2 nM
- IC50 [26]: < 10 nM
- IC50 (read off the curve) [27]: ~9 nM
- IC50 (read off the curve) (His-tagged CD47 [17]): ~2 nM
- IC50 (His-tagged CD47 [28]): 2 to 2.7 nM

B3: ABU14 (Fab) (Fab, V domains shown)
VH: EVQLQQSGPELVKPGASVKISCKASGYSFTNYHIHWVKQRPGQGLEWIGWIYPGSGNTKYNEKFKGMAILTADTSSSTAYMQLSSLTSEDSAVYYCARYDYDLYLHSWGQGTTVTVSS
VL: B2 VL with K3Q, M4I, L106I
notes: as for B2
- EC50 [29]: > 7 nM
- EC50 (read off the curve) [21]: ~10 nM
- IC50 [30]: 10 to 65 nM
- IC50 (read off the curve) (His-tagged CD47 [6]): ~3 nM
- EC50 [22]: < 5 nM
- IC50 (His-tagged CD47 [23]): < 2 nM
- EC50 (read off the curve) [25]: ~4 nM
- IC50 (read off the curve) [27]: ~20 nM
- IC50 (read off the curve) (His-tagged CD47 [17]): ~2 nM
- IC50 (His-tagged CD47 [28]): 2 to 2.7 nM
